Test results published in patent US10465177B2, “Maltooligosyl trehalose trehalohydrolase (MTHase) mutant and application thereof” (Jiangnan University, priority 2018, dated 2019).
Positions count from the first letter of the chain named. In names and notes the source's numbering stands.

B1: maltooligosyl trehalose trehalohydrolase (MTHase) derived from Sulfolobus acidocaldarius, wild type (WT), SEQ ID NO.2 (Sulfolobus acidocaldarius) (protein)
chain: MFSFGGNIEKNKGIFKLWAPYVNSVKLKLSKKLIPMEKNDEGFFEVEIDDIEENLTYSYIIEDKREIPDPASRYQPLGVHDKSQLIRTDYQILDLGKVKIEDLIIYELHVGTFSQEGNFKGVIEKLDYLKDLGITGIELMPVAQFPGNRDWGYDGVFLYAVQNTYGGPWELAKLVNEAHKRGIAVILDVVYNHIGPEGNYLLGLGPYFSDRYKTPWGLTFNFDDRGCDQVRKFILENVEYWFKTFKIDGLRLDAVHAIFDNSPKHILQEIAEKAHQLGKFVIAESDLNDPKIVKDDCGYKIDAQWVDDFHHAVHAFITKEKDYYYQDFGRIEDIEKTFKDVFVYDGKYSRYRGRTHGAPVGDLPPRKFVVFIQNHDQVGNRGNGERLSILTDKTTYLMAATLYILSPYIPLIFMGEEYYETNPFFFFSDFSDPVLIKGVREGRLKENNQMIDPQSEEAFLKSKLSWKIDEEVLDYYKQLINIRKRYNNCKRVKEVRREGNCITLIMEKIGIIASFDDIVINSKITGNLLIGIGFPKKLKKDELIKVNRGVGVYQLE
B2: maltooligosyl trehalose trehalohydrolase (MTHase) derived from Sulfolobus acidocaldarius (parent SEQ ID NO.2), mutant M140L/L202P/L218D/Y323G/F338S/I404T … (protein)
chain: B1 chain with M140L, L202P, L218D, Y323G, F338S, I404T
notes: sextuple site-directed mutant of the 556-aa parent

Experiments:
[1] = substrate: OC[C@H]1O[C@H](O[C@H]2[C@H](O)[C@@H](O)[C@@H](O[C@H]3[C@H](O)[C@@H](O)[C@@H](O[C@H]4[C@H](O)[C@@H](O)[C@@H](O[C@H]5[C@H](O)[C@@H](O)[C@@H](O[C@H]6[C@H](O)[C@@H](O)C(O)O[C@@H]6CO)O[C@@H]5CO)O[C@@H]4CO)O[C@@H]3CO)O[C@@H]2CO)[C@H](O)[C@@H](O)[C@@H]1O; experiment: purified protein, by the assay type; settings: other: wild type enzyme, maltohexose substrate, 60° C.
[2] = substrate: OC[C@H]1O[C@H](O[C@H]2[C@H](O)[C@@H](O)[C@@H](O[C@H]3[C@H](O)[C@@H](O)[C@@H](O[C@H]4[C@H](O)[C@@H](O)[C@@H](O[C@H]5[C@H](O)[C@@H](O)[C@@H](O[C@H]6[C@H](O)[C@@H](O)C(O)O[C@@H]6CO)O[C@@H]5CO)O[C@@H]4CO)O[C@@H]3CO)O[C@@H]2CO)[C@H](O)[C@@H](O)[C@@H]1O; experiment: purified protein, by the assay type; type: biochemical, Sulfolobus acidocaldarius; settings: other: mutant M140L/L202P/L218D/Y323G/F338S/I404T, maltohexose substrate, 60° C.

Protein | Km [1] [mM] | Km [2] [mM]
B1 | 3.89 ± 0.34 | –
B2 | – | 3.4 ± 0.94
